These results are taken from doi:10.1101/2024.08.29.610253, “Liprin-α/RIM complex regulates the dynamic assembly of presynaptic active zones via liquid-liquid phase separation” (bioRxiv, 2024).

This data set concerns the molecule itself. Put plainly: SEC-MALS; Superdex 200 Increase 10/300 GL in TBS (20 mM Tris pH 8.0, 100 mM NaCl, 1 mM EDTA, 1 mM DTT); individual proteins or mixture, up to 500 μM.

B1: liprin-α2_CC2 (domain or fragment, human, UniProt O75334 259-542, looked up)
chain: GSIDSTDETSQIVELQELLEKQNYEMAQMKERLAALSSRVGEVEQEAETARKDLIKTEEMNTKYQRDIREAMAQKEDMEERITTLEKRYLSAQRESTSIHDMNDKLENELANKEAILRQMEEKNRQLQERLELAEQKLQQTMRKAETLPEVEAELAQRIAALTKAEERHGNIEERMRHLEGQLEEKNQELQRARQREKMNEEHNKRLSDTVDRLLTESNERLQLHLKERMAALEEKNVLIQESETFRKNLEESLHDKERLAEEIEKLRSELDQLKMRTGSLIEP
notes: liprin-α2, human, GenBank AF034799.1, CC2 region, residues 259-542; Dimeric by SEC-MALS at 500 μM; source: E. coli BL21(DE3), purified (Ni-NTA, SEC)
Regarding B1, the stoichiometry N (commonly a count of units in the complex or per binding partner) was 2.
